Results from patent US5759768A, “Assays for factors affecting circularization of DNA, assays for factors affecting DNA integration, factors, and uses thereof” (priority 1995, dated 1998).

B1: RNase A: RNase A (protein, UniProt P61823 27-150, looked up)
Ribonuclease pancreatic: KETAAAKFERQHMDSSTSAASSSNYCNQMMKSRNLTKDRCKPVNTFVHESLADVQAVCSQKNVACKNGQTNCYQSYSTMSITDCRETGSSKYPNCAYKTTQANKHIIVACEGNPYVPVHFDASV
B2: T4 DNA ligase: phage T4 ligase (protein, UniProt P00970 1-487, looked up)
DNA ligase: MILKILNEIASIGSTKQKQAILEKNKDNELLKRVYRLTYSRGLQYYIKKWPKPGIATQSFGMLTLTDMLDFIEFTLATRKLTGNAAIEELTGYITDGKKDDVEVLRRVMMRDLECGASVSIANKVWPGLIPEQPQMLASSYDEKGINKNIKFPAFAQLKADGARCFAEVRGDELDDVRLLSRAGNEYLGLDLLKEELIKMTAEARQIHPEGVLIDGELVYHEQVKKEPEGLDFLFDAYPENSKAKEFAEVAESRTASNGIANKSLKGTISEKEAQCMKFQVWDYVPLVEIYSLPAFRLKYDVRFSKLEQMTSGYDKVILIENQVVNNLDEAKVIYKKYIDQGLEGIILKNIDGLWENARSKNLYKFKEVIDVDLKIVGIYPHRKDPTKAGGFILESECGKIKVNAGSGLKDKAGVKSHELDRTRIMENQNYYIGKILECECNGWLKSDGRTDYVKLFLPIAIRLREDKTKANTFEDVFGDFHEVTGL
B3: Proteinase K: an enzyme such as proteinase K (protein, UniProt P06873 106-384, looked up)
Proteinase K: AAQTNAPWGLARISSTSPGTSTYYYDESAGQGSCVYVIDTGIEASHPEFEGRAQMVKTYYYSSRDGNGHGTHCAGTVGSRTYGVAKKTQLFGVKVLDDNGSGQYSTIIAGMDFVASDKNNRNCPKGVVASLSLGGGYSSSVNSAAARLQSSGVMVAVAAGNNNADARNYSPASEPSVCTVGASDRYDRRSSFSNYGSVLDIFGPGTSILSTWIGGSTRSISGTSMATPHVAGLAAYLMTLGKTTAASACRYIADTANKGDLSNIPFGTVNLLAYNNYQA

How the values were obtained:
Assay type in all cases: biochemical, HIV-1
[1] = system: viral DNA integrated into .phi.X174 target DNA; details: for Relative activity, % of standard: pretreatment/37° C./30 min, target DNA 10 μg/ml
Description: (§1) The chronically HIV-1 infected Molt IIIB human T cell line (HTLV IIIB virus strain) was the source of virus for cell-free infections. This human T cell line constitutively produces a low level of the HTLV-111B strain of HIV-1. Culture supernatant containing a high concentration of virus was prepared by incubating 300×10^6 Molt IIIB cells in 50 ml fresh RPMI 1640 medium containing 20% fetal calf serum and 10 ng of phorbol 12-myristate 13-acetate per ml for 20-24 hours. […] Cytoplasmic extracts (3 ml) were prepared 4-4.5 hours post-infection, by a modification of the procedure of Brown et al., Cell 49: 342-356 (1987).
(§2) At specified times after infection, cells were washed twice with buffer K (20 mM Hepes, pH 7.4, 150 mM KCl, 5 mM MgCl2, 1 mM dithiothreitol, […]) and then lysed at a concentration of 33×10^6 cells per ml in the same buffer containing 0.025% digitonin or 0.025% Triton X-100. Cells were extracted for 10 minutes at room temperature, and the lysate was centrifuged at 1000×g for 3 minutes, and is referred to as "cytoplasmic extract". Cytoplasmic extract was the source of viral DNA for analyses in the assays described below. The pellet from the initial low-speed centrifugation contained cell debris and intact nuclei and is called the "nuclear pellet". Cell extracts from uninfected SupT1 cells were prepared in the same manner.
DNA samples were layered on 0.8% agarose gels and electrophoresed at 1 V/cm for 15 hour in Tris/acetate/EDTA buffer. After electrophoresis, DNA was blotted by capillary action onto nitrocellulose (0.45 μm, Schleicher & Schuell). […]
Cytoplasmic extracts prepared from SupT1 cells 4 hours after infection with HIV-1 were incubated with exogenously added target DNA under integration reaction conditions. Products of the reactions were analyzed by Southern blot hybridization. The time course of integration into linear .phi.X174 DNA target was determined. […] Integration was detected by the shift of linear viral DNA on Southern blots from the characteristic 9.7-kilobase (kb) position to a position corresponding to viral DNA plus target DNA.

[2] = system: purified linear viral DNA; assay: Ligation of purified linear viral DNA by phage T4 DNA ligase and Klenow fragment; details: T4 DNA ligase alone
Description: Linear viral DNA was purified from cytoplasmic extracts of cells 4 hours post-infection as described above. In FIG. 22, a purified linear viral DNA was added to cytoplasmic extracts from uninfected SupT1 cells and incubated at 37° C. for 45 minutes. The uninfected SupT1 cells used for the preparation of extracts were either untreated (lanes 3-11) or cultured in the presence of 10 ng/ml phorbol 12-myristate 13-acetate for six hours prior to extraction (lane 2). […] Lanes 2-11: reaction products following incubation of purified linear viral DNA in uninfected extracts containing 1 mM ATP (lanes 2 and 3), nothing added (lane 4), 1 mM dATP (lane 5), 1 mM UTP (lane 6), 1 mM CTP (lane 7), 1 mM GTP (lane 8), 1 mM ATPγS (lane 9), or 1 mM ADP (lane 10). Lane 11: uninfected SupT1 cell extract was treated with proteinase K for 10 minutes at 37° C., then linear viral DNA was added and incubation continued for 45 minutes. In FIG. 23, lanes 1, 2, 4 and 5: purified linear viral DNA was incubated with T4 DNA ligase (lane 1), T4 polynucleotide kinase and T4 DNA ligase (lane 2), Klenow fragment of E. coli DNA polymerase I and T4 DNA ligase (lane 3), or Klenow fragment, T4 polynucleotide kinase, and T4 DNA ligase (lane 4). Lanes 3 and 6: in vitro circularization reaction products generated in cell extracts, included as size standards. […]

[3] = system: linear viral DNA (circularization); details: pretreatment for 30 minutes prior to addition of ATP
Description: as §1
as §2, with “The pellet from the initial low-speed centrifugation contained cell debris and intact nuclei and is called the "nuclear pellet". Cell extracts from uninfected SupT1 cells were prepared in the same manner.” left out
Cell extracts were prepared from cells four to five hours after infection with HIV-1, using the above-described methods to yield fully functional viral preintegration complexes. […] Therefore, only LTR-containing DNA fragments are detected. […]

[4] = system: preintegration complexes; assay: Circularization mediated by partially purified preintegration complexes; details: pretreatment of uninfected SupT1 extracts
Description: Viral preintegration complexes were partially purified from cytoplasmic extracts by Sephacryl S400 gel filtration chromatography. Cytoplasmic extracts (0.8 ml) were loaded onto a 22-ml Sephacryl S400 (Pharmacia) column, 28 cm in height, equilibrated in buffer K containing 0.5% Triton X-100 at 4° C. Fractions (0.5 ml) were collected at a flow rate of approximately 0.2 ml/min.
The linear viral DNA present in cytoplasmic extracts is a part of the nucleoprotein preintegration complex that can be separated from the bulk of cellular proteins by gel filtration chromatography [Farnet and Haseltine, J. Virol., 65: 1910-1915 (1991)]. Preintegration complexes were partially purified by Sephacryl S400 column chromatography and tested for the ability to mediate the circularization of viral DNA. Cytoplasmic extracts (1 ml, vol) were fractionated by Sephacryl S-400 gel filtration chromatography as previously described. The void volume fractions of the column, containing the peak of viral DNA, were pooled (total volume, 1.5 ml) and incubated as follows with the results shown in FIG. 20. […]

Row | Molecule | Relative activity, % of standard [1] | ligation of the ends of linear viral DNA [2] | integration in vitro ([1]; pretreatment of extracts prior to incubation with target DNA) | circle formation [3] | ability of uninfected extracts to restore 1-LTR and simple 2-LTR circle formation [4]
1 | B1 | 100 % of standard |  |  |  | 
2 | B2 |  | unable to ligate the ends of the linear DNA molecules |  |  | 
3 | B3 | 0 % of standard |  | abolished integration in vitro | abolished circle formation | abolished the ability of the extracts to restore 1-LTR and simple 2-LTR circle formation
